Assay [1] has as its target Fc hole chain with F405K (Y349C/T366S/L368A/Y407V/F405K), of mutants KiHss-Kh, KiHss-AkKh and KiHss-KkKh (human). In words: non-reducing SDS-PAGE of co-expressed chains; scFv-Fc chain (A) and Fc chain (B) co-transfected 1:1 in HEK 293H; secreted Fcs purified by Protein A; disulphide-linked dimers AA, AB and BB told apart by size and quantified by densitometry (ImageLab).

For assay [2], the target named is Fc hole chain of mutant KiHss (Y349C/T366S/L368A/Y407V) (human). The description is as above.

“scFv-Fc knob chain of mutant KiHss-AkKh (S354C/T366W/K409A) (Fc fusion)” returned a heterodimeric Fc (AB), percent of total Fcs in assay [1] of 94%.
On to “scFv-Fc knob chain with F405K (S354C/T366W/F405K), of mutants KiHss-Kk and KiHss-KkKh (Fc fusion)”, for which, in assay [2], the heterodimeric Fc (AB), percent of total Fcs is above 80%.
Turning to “scFv-Fc knob chain of mutant KiHss (S354C/T366W) (Fc fusion)”, the heterodimeric Fc (AB), percent of total Fcs was 73% in assay [2] and above 80% in assay [1].

The record behind these values is PMC5584228.
